This is an account of results in patent US10577406B2, “FKBP-L polypeptides and uses in angiogenesis-mediated disorders” (ALMAC DISCOVERY LIMITED, priority 2006, dated 2020).

For assay [1], the system named is HMEC-1. The experiment in a line: in vitro migration assay (wound closure / wound scrape), recombinant protein or peptides added to medium. It counts as cell-based, Human. Here is the method: The in vitro migration assay used in these studies is a modified version of the method described by Ashton et al (1999). HMEC-1 were plated into individual chambers on a glass slide and grown to 90% confluence overnight. The medium was removed and the monolayer wounded. The monolayer was re-supplemented with fresh medium and the required volume of recombinant full length his-tagged FKBP-L protein (SEQ ID NO: 1) was added to give the required final concentration.
The monolayers were incubated for 7 hours after exposure to recombinant FKBP-L protein and then fixed in 4% PBS buffered paraformaldehyde. The extent of “wound” closure was blindly assessed microscopically by an independent investigator and quantified using a calibrated eyepiece graticule (1 mm/100 μm graduation) at 20× magnification (Olympus BX 50). The extent of closure in the FKBP-L treated slides was compared to time matched sham treated controls and the % inhibition of wound closure compared to time matched controls calculated.
The following studies were performed to determine the effect of a full length His-tagged recombinant FKBP-L protein on the wound closure assay measured as a function of time. Again, the in vitro migration assay used in these studies is a modified version of the method described by Ashton et al (1999). HMEC-1 were plated into individual chambers on a glass slide and grown to 90% confluence overnight. The medium was removed and the monolayer wounded. The monolayer was re-supplemented with fresh medium and the required volume of full length his-tagged recombinant FKBP-L (i.e., SEQ ID NO: 1) added to give the required final concentration 750 ngml^−1.
Slides were removed at fixed time points until complete closure of the wound, then fixed in 4% PBS buffered paraformaldehyde. The extent of “wound” closure was blindly assessed microscopically by an independent investigator and quantified using a calibrated eyepiece graticule (1 mm/100 μm graduation) at 20× magnification (Olympus BX 50). The extent of closure in the FKBP-L treated slides was compared to time matched sham treated controls and the % inhibition of wound closure compared to time matched controls calculated.
The in vitro migration assay used in these studies is a modified version of the method described by Ashton et al. (1999) see supra. HMEC-1 were plated into individual chambers on a glass slide and grown to 90% confluence overnight. The medium was removed and the monolayer wounded. The monolayer was re-supplemented with fresh medium and the required volume of the following peptides was added to achieve a dose range from 10^−14-10^−6 M.
The monolayers were incubated for 7 h and then fixed in 4% PBS buffered paraformaldehyde. The extent of “wound” closure was blindly assessed microscopically by an independent investigator and quantified using a calibrated eyepiece graticule (1 mm/100 μm graduation) at 20× magnification (Olympus BX 50). The extent of closure in the FKBP-L treated slides was compared to time matched sham treated controls and the % inhibition of wound closure compared to time matched controls calculated.
The in vitro migration assay used in these studies is a modified version of the method described by Ashton et al. (1999) see supra. HMEC-1 were plated into individual chambers on a glass slide and grown to 90% confluence overnight. The medium was removed and the monolayers wounded. The monolayer was re-supplemented with fresh medium and the required volume of each peptide (i.e., peptides 1-17, SEQ ID NOS: 12-28; Table 4 below) was added to give the required final concentration (10^−14-10^−6 M).
The monolayers were incubated for 24 h and then fixed in 4% PBS buffered paraformaldehyde. The extent of “wound” closure was blindly assessed microscopically by an independent investigator and quantified using a calibrated eyepiece graticule (1 mm/100 μm graduation) at 20× magnification (Olympus BX 50). […]

The subject of assay [2] is PC3 (Prostate; CD44+ve). The experiment in a line: cell invasion in a modified Boyden chamber system, PC3. It counts as cell-based. Particulars: 24 h. Here is the method: (§1) Twelve well plate polycarbonate inserts were divided into two groups with half remaining uncoated and half coated with 100 μg/cm^2 of Matrigel. The coated inserts were allowed to dry overnight at room temperature in a sterile tissue culture hood. The required cell line; HMEC-1, PC3 or MDA231 was trypsinised, re-suspended in fresh medium and the cell number calculated. 5×10^5 cells, in a total volume of 500 μl, were added to the insert (top chamber) and 1.5 ml of complete medium added to the bottom chamber of the plate as a stimulus for invasion. FKBP-L 24mer was added to both the upper and lower chamber of the plate at the required concentration in the experimental wells. The plate was incubated for 24 h (PC3 or MDA231) or 48 h (HMEC-1).
(§2) The inserts were carefully removed from their 12 well plate and inserts without Matrigel coating were placed directly into Carnoys fixative. […]
(§3) The polycarbonate inserts were cut from the holders and placed on to mounting medium on a microscope slide. […] The slides were stored at 4° C. until analysed.
(§4) Ten images from each insert were captured and the number of fluorescent cells per image was analysed by Lucia Imaging software. The ratio of cells visible on non-coated inserts compared to cells visible on Matrigel coated inserts was expressed as % invasion. […]

Assay [3] has as its system MDA-231 (breast; CD44+ve). The experiment in a line: cell invasion in a modified Boyden chamber system, MDA-231. It counts as cell-based. Particulars: 24 h. Here is the method: as §1, §2, §3, §4
Assay [4] deals with MCF-7 (breast tumor cell line; CD44 −ve). The experiment in a line: tumor cell migration, wound closure assay, MCF-7. Particulars: MCF-7 (CD44 −ve); 24 h. It counts as cell-based. How it is done: The in vitro migration assay used in these studies is a modified version of the method described by Ashton et al. (1999) see supra. PC3 (prostate tumor cell line; CD44 positive; CD44 +ve), MDA231 (breast tumor cell line; CD44 +ve), HT29 (Colorectal tumor cell line; CD44 +ve), MCF-7 (breast tumor cell line; CD44 negative; CD44 −ve) and DU145 (prostate tumor cell line; CD44 −ve) were plated into individual chambers on a glass slide and grown to 90% confluence overnight. The medium was removed and the monolayers wounded. […] The monolayers were incubated for 24 h and then fixed in 4% PBS buffered paraformaldehyde.
The extent of “wound” closure was blindly assessed microscopically by an independent investigator and quantified using a calibrated eyepiece graticule (1 mm/100 μm graduation) at 20× magnification (Olympus BX 50). The extent of closure in the FKBP-L treated slides was compared to time matched sham treated controls and the % inhibition of wound closure compared to time matched controls calculated.

For “H-QIRQQPRDPPTETLELEVSPDPAS-OH [FKBP-L 24mer]”, in assay [1] (wound scrape, 7 h), the “potency compared with the full length recombinant protein on a mole/mole basis” value is listed as “increased potency”. Moreover, the “effect on cell invasion through Matrigel” value in assay [2] and in assay [3] was “potent inhibitor” in each case.

B1: full length recombinant FKBP-L: recombinant full length his-tagged FKBP-L protein (SEQ ID NO: 1) expressed in BL21 (DE3) (protein, listed as Homo sapiens)
chain: MRGSHHHHHHGMASMTGGQQMGRDLYDDDDKDRWGSMETPPVNTIGEKDTSQPQQEWEKNLRENLDSVIQIRQQPRDPPTETLELEVSPDPASQILEHTQGAEKLVAELEGDSHKSHGSTSQMPEALQASDLWYCPDGSFVKKIVIRGHGLDKPKLGSCCRVLALGFPFGSGPPEGWTELTMGVGPWREETWGELIEKCLESMCQGEEAELQLPGHTGPPVGLTLASFTQGRDSWELETSEKEALAREERARGTELFRAGNPEGAARCYGRALRLLLTLPPPGPPERTVLHANLAACQLLLGQPQLAAQSCDRVLEREPGHLKALYRRGVAQAALGNLEKATADLKKVLAIDPKNRAAQEELGKVVIQGKNQDAGLAQGLRKMFG
modifications: His tag
Take B1: the “delay of 50% wound closure versus control” value in assay [1] (750 ngml^−1) was 9 h. Moreover, the “time until 50% wound closure” value in assay [1] (750 ngml^−1, single administration, control 7 hours) was determined as 16 h. Also, the “inhibition of HMEC-1 migration into the denuded area of the monolayer compared to time matched controls” value in assay [1] (750 ngml^−1, 7 hours) was determined as 60%. In addition, in assay [1] (750 ngml^−1, control 16 hours), the “time until which the wound remained open (total wound closure)” value is 34 h. Besides, the “optimum concentration for inhibition of migration” value in assay [1] (7 hours) came to 750 ngml^−1. Further, the “dose effective to prevent cell migration” value in assay [1] (FIG. 4 dose response) was 10^−6 M. Besides, in assay [4], the “effect on tumor cell migration” value is “not in CD44 −ve tumor cell lines”.
